In the supplement of paper PMC10567573:

B1: TRAF3IP2 (parent)
chain: KQGSMNFRFIPVLFPNAKKEHVPT

Variants of: B1
Assay: protein stability index of a GFP-peptide fusion (GPS, HEK-293T) (PSI 1-6); higher = more stable
Settings: c terminus: a fixed tail appended
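Also: lentivirally expressed fusions sorted by FACS into six bins by GFP to DsRed ratio, PSI derived from sequencing read proportions per bin multiplied by bin number.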

Row | Variant | protein stability index
1 | KQGSMNFRFIPVLFPGAKKEHVPT | 2.08
2 | KQGSMNFRFIPVLFPAAKKEHVPT | 1.75
3 | KQGSMNFRFIPVLFPLAKKEHVPT | 1.66
4 | KQGSMNFRFIPVLFPTAKKEHVPT | 1.7
5 | KQGSMNFRFIPVLFPPAKKEHVPT | 1.92
6 | KQGSMNFRFIPVLFPIAKKEHVPT | 2.29
7 | KQGSMNFRFIPVLFPSAKKEHVPT | 2.33
8 | KQGSMNFRFIPVLFPNAKKEHVPQ | 1.92
9 | KQGSMNFRFIPVLFPNAKKEHVPF | 1.75
10 | KQGSMNFRFIPVLFPNAKKEHVPH | 1.89
11 | KQGSMNFRFIPVLFPNAKKEHVPA | 2.25
12 | KQGSMNFRFIFVLFPNAKKEHVPT | 3.53
13 | KQGSMNFRFIMVLFPNAKKEHVPT | 2.98
14 | KQGSMNFRFIYVLFPNAKKEHVPT | 3.97
15 | KQGSMNFRFIVVLFPNAKKEHVPT | 2.91
16 | KQGSMNFRFIGVLFPNAKKEHVPT | 2.35
17 | KQGLMNFRFIPVLFPNAKKEHVPT | 1.2
18 | KQGMMNFRFIPVLFPNAKKEHVPT | 1.81
19 | KQGSMNFRYIPVLFPNAKKEHVPT | 2.5
20 | KQGSMNFRFIPELFPNAKKEHVPT | 2.76
21 | KQGSMNFRFIPKLFPNAKKEHVPT | 2.39
22 | KQGSMNFRFIPALFPNAKKEHVPT | 2.31
23 | KQGSMNFRFIPLLFPNAKKEHVPT | 2.12
24 | KQGSMNFRFIPVLFPNQKKEHVPT | 2.38

Row | Variant | protein stability index
25 | KQGSMNFRFIPVLFPNRKKEHVPT | 2
26 | KQGSMNFRFIPVLFPNMKKEHVPT | 2.08
27 | KQGSMNFRFIPVLFPNDKKEHVPT | 2.32
28 | KQGSFNFRFIPVLFPNAKKEHVPT | 1.52
29 | KQGSENFRFIPVLFPNAKKEHVPT | 2.88
30 | KQGSANFRFIPVLFPNAKKEHVPT | 2.21
31 | KQGSSNFRFIPVLFPNAKKEHVPT | 2.04
32 | KQGSINFRFIPVLFPNAKKEHVPT | 2.01
33 | KQGSMNFRFIPVLFMNAKKEHVPT | 1.58
34 | KQGSMNFRFIPVLFGNAKKEHVPT | 1.49
35 | KQGSMNFRFIPVLFHNAKKEHVPT | 1.87
36 | KQGSMNFRFIPVLFSNAKKEHVPT | 1.75
37 | KQGSMNFRFIPVLFTNAKKEHVPT | 2.54
38 | KQGSMNFRFIPVLFNNAKKEHVPT | 1.87
39 | KQGSMNFRFIPVLFPNAKKEWVPT | 1.81
40 | KQGSMNFRFIPVLFPNAKKEFVPT | 1.66
41 | KQGSMNFRFIPVLFPNAKKCHVPT | 1.85
42 | KQGSMNFRFIPVLFPNAKKNHVPT | 2.15
43 | KQGSMNFRFIPVLFPNAKKTHVPT | 2.05
44 | KQGSMNFRFIPVLFPNAKKWHVPT | 1.9
45 | KQGSMNWRFIPVLFPNAKKEHVPT | 2.23
46 | KQGSMNCRFIPVLFPNAKKEHVPT | 2.38
47 | KQGSMNERFIPVLFPNAKKEHVPT | 3.67
48 | KQGSMNFRFIPVLFPNAKKEHRPT | 1.99

Row | Variant | protein stability index
49 | KQGSMNFRFIPVLFPNAKKEHKPT | 2.61
50 | KQGSMNFRFIPVLFPNAKKEHGPT | 2.4
51 | KQGSMNFRFIPVLFPNAKKEHFPT | 2.16
52 | KQGSMNFRFIPVLFPNAKKEHQPT | 1.96
53 | KQGSMNFRFIPVLFPNAKKEHVHT | 1.83
54 | KQGSMNFRFIPVLFPNAKKEHVGT | 2.15
55 | KQGSMNFRFIPVLFPNAKKEHVMT | 1.78
56 | KQGSMNFRFIPVLFPNAKKEHVDT | 2.29
57 | KQGSMNFRFIPVLFPNAKKEHVIT | 1.77
58 | KQGSMNFRFIPVLFPNAKKEHVCT | 1.96
59 | KQRSMNFRFIPVLFPNAKKEHVPT | 1.83
60 | KQHSMNFRFIPVLFPNAKKEHVPT | 2.01
61 | KQDSMNFRFIPVLFPNAKKEHVPT | 2.02
62 | KQYSMNFRFIPVLFPNAKKEHVPT | 1.33
63 | KQESMNFRFIPVLFPNAKKEHVPT | 2.09
64 | KQGSMNFRFRPVLFPNAKKEHVPT | 2.75
65 | KQGSMNFRFVPVLFPNAKKEHVPT | 1.31
66 | KQGSMNFRFSPVLFPNAKKEHVPT | 2.46
67 | KQGSMNFRFPPVLFPNAKKEHVPT | 3.42
68 | KQGSMNFRFWPVLFPNAKKEHVPT | 1.97
69 | KQGSMNFRFIPVLFPNAGKEHVPT | 2.04
70 | KQGSMNFRFIPVLFPNASKEHVPT | 1.71
71 | KQGSMNFRFIPVLFPNAMKEHVPT | 1.76
72 | KQGSMNFRFIPVLFPNAEKEHVPT | 2.15

Row | Variant | protein stability index
73 | KQGSMNFRFIPVLFPNAQKEHVPT | 1.77
74 | KQGSMVFRFIPVLFPNAKKEHVPT | 1.93
75 | KQGSMMFRFIPVLFPNAKKEHVPT | 1.58
76 | KQGSMIFRFIPVLFPNAKKEHVPT | 2.15
77 | KQGSMNFSFIPVLFPNAKKEHVPT | 2.39
78 | KQGSMNFVFIPVLFPNAKKEHVPT | 2.02
79 | KQGSMNFFFIPVLFPNAKKEHVPT | 1.61
80 | RQGSMNFRFIPVLFPNAKKEHVPT | 2.31
81 | EQGSMNFRFIPVLFPNAKKEHVPT | 2.7
82 | KQGSMNFRFIPVWFPNAKKEHVPT | 2.09
83 | KQGSMNFRFIPVGFPNAKKEHVPT | 1.93
84 | KQGSMNFRFIPVTFPNAKKEHVPT | 1.86
85 | KQGSMNFRFIPVLLPNAKKEHVPT | 1.68
86 | KQGSMNFRFIPVLDPNAKKEHVPT | 2.77
87 | KQGSMNFRFIPVLCPNAKKEHVPT | 1.87
88 | KQGSMNFRFIPVLFPNAKTEHVPT | 1.75
89 | KQGSMNFRFIPVLFPNAKEEHVPT | 1.99
90 | KQGSMNFRFIPVLFPNAKFEHVPT | 1.98
91 | KQGSMNFRFIPVLFPNAKCEHVPT | 1.7
92 | KQGSMNFRFIPVLFPNAKNEHVPT | 1.7
93 | KQGSMNFRFIPVLFPNAKREHVPT | 1.59
94 | KQGSMNFRFIPVLFPNAKDEHVPT | 2.13
